Results reported in paper PMC3797752.
pKd: −log10 of the molar value.

Columns and labels:
[1] = target: 22-mer tyrosine-sulfated biotinylated N-terminal CCR5 peptide; experiment: SPR; qualitative; ~5000 RU of biotinylated CCR5 peptide on an SA chip; 100 nM gp120 proteins injected at 10 µl/min, alone or pre-incubated with 2-fold molar excess of sCD4; 25°C; HBS-EP buffer; compared at time = 300 s
[2] = target: soluble CD4 (sCD4) (UniProt P01730); experiment: SPR; BIAcore 3000; ~200 RU of sCD4 or mAb immobilised directly on a CM5 chip via amine coupling; varying concentrations of gp120 injected at 80 µl/min; 25°C; HBS-EP buffer; 1:1 Langmuir fit
[3] = target: wild-type SF162 gp140 (cleavage-defective) (HIV-1 SF162); experiment: not stated; oligomeric state of the purified glycoproteins; method not given

gp120+sCD4 (sCD4-liganded, wild-type gp120) (from UniProt P01730) (complex)
fold better binding than gp120 [1]: > 10 fold

wild-type SF162 gp120 (natural protein)
pKd [2]: 7.61

wild-type SF162 gp140 (cleavage-defective) (natural protein)
stoichiometry N [3]: 3
